Assay results as given in publication PMC4396693, “Structural Basis of Latrophilin-FLRT Interaction” (Structure(London, England:1993), 2015).

B1: murine LPHN3^Lec-Olf, wild type, biotinylated at a C-terminal Avi-Tag [modified: biotin on the C-terminal Avi-Tag (enzymatic); biotin on the C-terminal Avi-Tag (enzymatic)] [murine] / murine FLRT2 full ectodomain, wild … (parent)
chain 1: PIPMAVVRRELSCESYPIELRCPGTDVIMIESANYGRTDDKICDSDPAQMENIRCYLPDAYKIMSQRCNNRTQCAVVAGPDVFPDPCPGTYKYLEVQYECVPYKVEQKVFLCPGLLKGVYQSEHLFESDHQSGAWCKDPLQASDKIYYMPWTPYRTDTLTEYSSKDDFIAGRPTTTYKLPHRVDGTGFVVYDGALFFNKERTRNIVKFDLRTRIKSGEAIIANANYHDTSPYRWGGKSDIDLAVDENGLWVIYATEQNNGKIVISQLNPYTLRIEGTWDTAYDKRSASNAFMICGILYVVKSVYEDDDNEATGNKIDYIYNTDQSKDSLVDVPFPNSYQYIAAVDYNPRDNLLYVWNNYHVVKYSLDFGPLD
chain 2: ACPSVCRCDRNFVYCNERSLTSVPLGIPEGVTVLYLHNNQINNAGFPAELHNVQSVHTVYLYGNQLDEFPMNLPKNVRVLHLQENNIQTISRAALAQLLKLEELHLDDNSISTVGVEDGAFREAISLKLLFLSKNHLSSVPVGLPVDLQELRVDENRIAVISDMAFQNLTSLERLIVDGNLLTNKGIAEGTFSHLTKLKEFSIVRNSLSHPPPDLPGTHLIRLYLQDNQINHIPLTAFANLRKLERLDISNNQLRMLTQGVFDHLSNLKQLTARNNPWFCDCSIKWVTEWLKYIPSSLNVRGFMCQGPEQVRGMAVRELNMNLLSCPTTTPGLPVFTPAPSTVSPTTQSPTLSVPSPSRGSVPPAPTPSKLPTIPDWDGRERVTPPISERIQLSIHFVNDTSIQVSWLSLFTVMAYKLTWVKMGHSLVGGIVQERIVSGEKQHLSLVNLEPRSTYRICLVPLDAFNYRTVEDTICSEATTHASYLNNGSNTASSHEQTTSHSMGSP

Variants of: B1
Assay: SPR
Details: with murine FLRT2 full ectodomain; for Kd: biotinylated LPHN3 Lec-Olf immobilized on streptavidin-coated Biacore chips, FLRT2 ectodomain injected as analyte, 1:1 binding model, parent: 18 nM; for response: maximum response at the highest FLRT2 ectodomain concentration plotted (about 2.3 µM), parent: 450, read off a plot

Kd | response | Variant
980 nM | 460 RU | chain 1 P153N R155T
460 nM | 400 RU | chain 1 T176N K178T
